B1: EEHEE_rd4_0469 (parent)
chain: ITIHVNGVTYHFDNPEEAEKFAQKMAKTYQLKMEIHNGEFHME

Variants of: B1
Test: folding stability dG (cDNA display proteolysis); higher = more stable
Conditions: PBS, room temperature

Variant | folding stability dG [kcal/mol]
ITIHVNGVTYHFDNPEEAEKFAQKTAKTYQLKMEIHNGEFHME [M25T] | 0.301
ITIHVNGVTYHFDNPEEAEKFAQKIAKTYQLKMEIHNGEFHME [M25I] | 0.968
ITIHVNGVTYHFDNPEEAEKFAQKNAKTYQLKMEIHNGEFHME [M25N] | 0.081
ITIHVNGVTYHFDNPEEAEKFAQKWAKTYQLKMEIHNGEFHME [M25W] | 1.07
ITIHVNGVTYHFDNPEEAEKFAQKGAKTYQLKMEIHNGEFHME [M25G] | -0.244
ITIHVNGVTYHFDNPEEAEKFAQKQAKTYQLKMEIHNGEFHME [M25Q] | 0.418
ITIHVNGVTYHFDNPEEAEKFAQKAAKTYQLKMEIHNGEFHME [M25A] | 0.464
ITIHVNGVTYHFDNPEEAEKFAQKRAKTYQLKMEIHNGEFHME [M25R] | 0.041
ITIHVNGVTYHFDNPEEAEKFAQKFAKTYQLKMEIHNGEFHME [M25F] | 0.692
ITIHVNGVTYHFDNPEEAEKFAQKHAKTYQLKMEIHNGEFHME [M25H] | 0.288
ITIHVNGVTYHFDNPEEAEKFAQKPAKTYQLKMEIHNGEFHME [M25P] | -0.979
ITIHVNGVTYHFDNPEEAEKFAQKEAKTYQLKMEIHNGEFHME [M25E] | 0.109
ITIHVNGVTYHFDNPEEAEKFAQKDAKTYQLKMEIHNGEFHME [M25D] | -0.066
ITIHVNGVTYHFDNPEEAEKFAQKCAKTYQLKMEIHNGEFHME [M25C] | 1.66
ITIHVNGVTYHFDNPEEAEKFAQKLAKTYQLKMEIHNGEFHME [M25L] | 1.12
ITIHVNGVTYHFDNPEEAEKFAQKKAKTYQLKMEIHNGEFHME [M25K] | -0.083
ITIHVNGVTYHFDNPEEAEKFAQKSAKTYQLKMEIHNGEFHME [M25S] | 0.059
ITIHVNGVTYHFDNPEEAEKFAQKYAKTYQLKMEIHNGEFHME [M25Y] | 0.664
ITIHVNGVTYHFDNPEEAEKFAQKVAKTYQLKMEIHNGEFHME [M25V] | 0.732
ITIHVNGVTYHFDNPEEAEKFAQKMALTYQLKMEIHNGEFHME [K27L] | 1.34
ITIHVNGVTYHFDNPEEAEKFAQKMAWTYQLKMEIHNGEFHME [K27W] | 1.38
ITIHVNGVTYHFDNPEEAEKFAQKMAVTYQLKMEIHNGEFHME [K27V] | 1.22
ITIHVNGVTYHFDNPEEAEKFAQKMANTYQLKMEIHNGEFHME [K27N] | 0.922
ITIHVNGVTYHFDNPEEAEKFAQKMAGTYQLKMEIHNGEFHME [K27G] | 0.713

Variant | folding stability dG [kcal/mol]
ITIHVNGVTYHFDNPEEAEKFAQKMATTYQLKMEIHNGEFHME [K27T] | 1.02
ITIHVNGVTYHFDNPEEAEKFAQKMAMTYQLKMEIHNGEFHME [K27M] | 1.22
ITIHVNGVTYHFDNPEEAEKFAQKMAYTYQLKMEIHNGEFHME [K27Y] | 1.27
ITIHVNGVTYHFDNPEEAEKFAQKMAPTYQLKMEIHNGEFHME [K27P] | 1.22
ITIHVNGVTYHFDNPEEAEKFAQKMAQTYQLKMEIHNGEFHME [K27Q] | 1.24
ITIHVNGVTYHFDNPEEAEKFAQKMAITYQLKMEIHNGEFHME [K27I] | 1.34
ITIHVNGVTYHFDNPEEAEKFAQKMAATYQLKMEIHNGEFHME [K27A] | 1.32
ITIHVNGVTYHFDNPEEAEKFAQKMAETYQLKMEIHNGEFHME [K27E] | 1.51
ITIHVNGVTYHFDNPEEAEKFAQKMAHTYQLKMEIHNGEFHME [K27H] | 0.969
ITIHVNGVTYHFDNPEEAEKFAQKMARTYQLKMEIHNGEFHME [K27R] | 1.09
ITIHVNGVTYHFDNPEEAEKFAQKMAFTYQLKMEIHNGEFHME [K27F] | 1.25
ITIHVNGVTYHFDNPEEAEKFAQKMADTYQLKMEIHNGEFHME [K27D] | 1.5
ITIHVNGVTYHFDNPEEAEKFAQKMASTYQLKMEIHNGEFHME [K27S] | 1
ITIHVNGVTYHFDNPEEAEKFAQKMLKTYQLKMEIHNGEFHME [A26L] | 1.25
ITIHVNGVTYHFDNPEEAEKFAQKMQKTYQLKMEIHNGEFHME [A26Q] | 0.97
ITIHVNGVTYHFDNPEEAEKFAQKMDKTYQLKMEIHNGEFHME [A26D] | 0.963
ITIHVNGVTYHFDNPEEAEKFAQKMNKTYQLKMEIHNGEFHME [A26N] | 0.766
ITIHVNGVTYHFDNPEEAEKFAQKMYKTYQLKMEIHNGEFHME [A26Y] | 1.45
ITIHVNGVTYHFDNPEEAEKFAQKMKKTYQLKMEIHNGEFHME [A26K] | 1.01
ITIHVNGVTYHFDNPEEAEKFAQKMIKTYQLKMEIHNGEFHME [A26I] | 1.31
ITIHVNGVTYHFDNPEEAEKFAQKMSKTYQLKMEIHNGEFHME [A26S] | 1.04
ITIHVNGVTYHFDNPEEAEKFAQKMEKTYQLKMEIHNGEFHME [A26E] | 1.12
ITIHVNGVTYHFDNPEEAEKFAQKMFKTYQLKMEIHNGEFHME [A26F] | 1.19
ITIHVNGVTYHFDNPEEAEKFAQKMPKTYQLKMEIHNGEFHME [A26P] | 0.076

Variant | folding stability dG [kcal/mol]
ITIHVNGVTYHFDNPEEAEKFAQKMMKTYQLKMEIHNGEFHME [A26M] | 1.46
ITIHVNGVTYHFDNPEEAEKFAQKMTKTYQLKMEIHNGEFHME [A26T] | 0.708
ITIHVNGVTYHFDNPEEAEKFAQKMHKTYQLKMEIHNGEFHME [A26H] | 0.851
ITIHVNGVTYHFDNPEEAEKFAQKMGKTYQLKMEIHNGEFHME [A26G] | 0.919
ITIHVNGVTYHFDNPEEAEKFAQKMRKTYQLKMEIHNGEFHME [A26R] | 1.1
ITIHVNGVTYHFDNPEEAEKFAQKMWKTYQLKMEIHNGEFHME [A26W] | 1.63
ITIHVNGVTYHFDNPEEAEKFAQKMVKTYQLKMEIHNGEFHME [A26V] | 0.794
ITIHVNGVTYHFDNPEEAEKFAQKMAKSYQLKMEIHNGEFHME [T28S] | 0.87
ITIHVNGVTYHFDNPEEAEKFAQKMAKIYQLKMEIHNGEFHME [T28I] | 1.6
ITIHVNGVTYHFDNPEEAEKFAQKMAKRYQLKMEIHNGEFHME [T28R] | 1.65
ITIHVNGVTYHFDNPEEAEKFAQKMAKQYQLKMEIHNGEFHME [T28Q] | 1.51
ITIHVNGVTYHFDNPEEAEKFAQKMAKNYQLKMEIHNGEFHME [T28N] | 1.24
ITIHVNGVTYHFDNPEEAEKFAQKMAKVYQLKMEIHNGEFHME [T28V] | 1.22
ITIHVNGVTYHFDNPEEAEKFAQKMAKHYQLKMEIHNGEFHME [T28H] | 1.45
ITIHVNGVTYHFDNPEEAEKFAQKMAKKYQLKMEIHNGEFHME [T28K] | 1.69
ITIHVNGVTYHFDNPEEAEKFAQKMAKDYQLKMEIHNGEFHME [T28D] | 1.87
ITIHVNGVTYHFDNPEEAEKFAQKMAKPYQLKMEIHNGEFHME [T28P] | 0.094
ITIHVNGVTYHFDNPEEAEKFAQKMAKLYQLKMEIHNGEFHME [T28L] | 1.97
ITIHVNGVTYHFDNPEEAEKFAQKMAKEYQLKMEIHNGEFHME [T28E] | 2
ITIHVNGVTYHFDNPEEAEKFAQKMAKMYQLKMEIHNGEFHME [T28M] | 1.65
ITIHVNGVTYHFDNPEEAEKFAQKMAKWYQLKMEIHNGEFHME [T28W] | 1.95
ITIHVNGVTYHFDNPEEAEKFAQKMAKYYQLKMEIHNGEFHME [T28Y] | 1.91
ITIHVNGVTYHFDNPEEAEKFAQKMAKGYQLKMEIHNGEFHME [T28G] | 0.636
ITIHVNGVTYHFDNPEEAEKFAQKMAKAYQLKMEIHNGEFHME [T28A] | 1.26

Variant | folding stability dG [kcal/mol]
ITIHVNGVTYHFDNPEEAEKFAQKMAKFYQLKMEIHNGEFHME [T28F] | 1.67
ITIHVNGVTYHFDNPEEAEKFAQFMAKTYQLKMEIHNGEFHME [K24F] | 1.99
ITIHVNGVTYHFDNPEEAEKFAQVMAKTYQLKMEIHNGEFHME [K24V] | 1.29
ITIHVNGVTYHFDNPEEAEKFAQNMAKTYQLKMEIHNGEFHME [K24N] | 0.976
ITIHVNGVTYHFDNPEEAEKFAQWMAKTYQLKMEIHNGEFHME [K24W] | 2.29
ITIHVNGVTYHFDNPEEAEKFAQIMAKTYQLKMEIHNGEFHME [K24I] | 1.41
ITIHVNGVTYHFDNPEEAEKFAQSMAKTYQLKMEIHNGEFHME [K24S] | 0.939
ITIHVNGVTYHFDNPEEAEKFAQQMAKTYQLKMEIHNGEFHME [K24Q] | 1.2
ITIHVNGVTYHFDNPEEAEKFAQGMAKTYQLKMEIHNGEFHME [K24G] | 0.646
ITIHVNGVTYHFDNPEEAEKFAQLMAKTYQLKMEIHNGEFHME [K24L] | 1.48
ITIHVNGVTYHFDNPEEAEKFAQYMAKTYQLKMEIHNGEFHME [K24Y] | 2.27
ITIHVNGVTYHFDNPEEAEKFAQTMAKTYQLKMEIHNGEFHME [K24T] | 1.1
ITIHVNGVTYHFDNPEEAEKFAQEMAKTYQLKMEIHNGEFHME [K24E] | 1.39
ITIHVNGVTYHFDNPEEAEKFAQPMAKTYQLKMEIHNGEFHME [K24P] | -0.407
ITIHVNGVTYHFDNPEEAEKFAQDMAKTYQLKMEIHNGEFHME [K24D] | 1.09
ITIHVNGVTYHFDNPEEAEKFAQRMAKTYQLKMEIHNGEFHME [K24R] | 1.31
ITIHVNGVTYHFDNPEEAEKFAQMMAKTYQLKMEIHNGEFHME [K24M] | 1.41
ITIHVNGVTYHFDNPEEAEKFAQHMAKTYQLKMEIHNGEFHME [K24H] | 1.51
ITIHVNGVTYHFDNPEEAEKFAQAMAKTYQLKMEIHNGEFHME [K24A] | 1.11
ITIHVNGVTYHFDNPEEAEKFARKMAKTYQLKMEIHNGEFHME [Q23R] | 1.35
ITIHVNGVTYHFDNPEEAEKFAVKMAKTYQLKMEIHNGEFHME [Q23V] | 1.26
ITIHVNGVTYHFDNPEEAEKFATKMAKTYQLKMEIHNGEFHME [Q23T] | 1.19
ITIHVNGVTYHFDNPEEAEKFAYKMAKTYQLKMEIHNGEFHME [Q23Y] | 1.28
ITIHVNGVTYHFDNPEEAEKFAWKMAKTYQLKMEIHNGEFHME [Q23W] | 1.36

Variant | folding stability dG [kcal/mol]
ITIHVNGVTYHFDNPEEAEKFAMKMAKTYQLKMEIHNGEFHME [Q23M] | 1.29
ITIHVNGVTYHFDNPEEAEKFANKMAKTYQLKMEIHNGEFHME [Q23N] | 0.986
ITIHVNGVTYHFDNPEEAEKFASKMAKTYQLKMEIHNGEFHME [Q23S] | 1.05
ITIHVNGVTYHFDNPEEAEKFALKMAKTYQLKMEIHNGEFHME [Q23L] | 1.25
ITIHVNGVTYHFDNPEEAEKFAQKMAKTRQLKMEIHNGEFHME [Y29R] | 0.657
ITIHVNGVTYHFDNPEEAEKFAQKMAKTCQLKMEIHNGEFHME [Y29C] | 2.3
ITIHVNGVTYHFDNPEEAEKFAQKMAKTFQLKMEIHNGEFHME [Y29F] | 0.965
ITIHVNGVTYHFDNPEEAEKFAQKMAKTLQLKMEIHNGEFHME [Y29L] | 1.17
ITIHVNGVTYHFDNPEEAEKFAQKMAKTNQLKMEIHNGEFHME [Y29N] | 1.29
ITIHVNGVTYHFDNPEEAEKFAQKMAKTKQLKMEIHNGEFHME [Y29K] | 0.768
ITIHVNGVTYHFDNPEEAEKFAQKMAKTEQLKMEIHNGEFHME [Y29E] | 1.6
ITIHVNGVTYHFDNPEEAEKFAQKMAKTTQLKMEIHNGEFHME [Y29T] | 1.05
ITIHVNGVTYHFDNPEEAEKFAQKMAKTMQLKMEIHNGEFHME [Y29M] | 0.899
ITIHVNGVTYHFDNPEEAEKFAQKMAKTIQLKMEIHNGEFHME [Y29I] | 0.788
ITIHVNGVTYHFDNPEEAEKFAQKMAKTSQLKMEIHNGEFHME [Y29S] | 1.05
ITIHVNGVTYHFDNPEEAEKFAQKMAKTPQLKMEIHNGEFHME [Y29P] | 1.7
ITIHVNGVTYHFDNPEEAEKFAQKMAKTHQLKMEIHNGEFHME [Y29H] | 1.45
ITIHVNGVTYHFDNPEEAEKFAQKMAKTDQLKMEIHNGEFHME [Y29D] | 1.59
ITIHVNGVTYHFDNPEEAEKFAQKMAKTGQLKMEIHNGEFHME [Y29G] | 1.59
ITIHVNGVTYHFDNPEEAEKFAQKMAKTAQLKMEIHNGEFHME [Y29A] | 1.07
ITIHVNGVTYHFDNPEEAEKFAQKMAKTQQLKMEIHNGEFHME [Y29Q] | 1.05
ITIHVNGVTYHFDNPEEAEKFAQKMAKTVQLKMEIHNGEFHME [Y29V] | 0.848

Reference: the MegaScale stability set (Tsuboyama et al. 2023)
